Experimental findings from patent publication US20140335568 are described below.

Data set [1] concerns scFv clone C1 (anti-dsDNA d(AT)4 recombinant antibody) (synthetic (Tomlinson I/J human scFv phage library)). The experiment in a line: competition. To be noted: competition ELISA against immobilized 35 bp dsDNA, 50% reduction, 1.25x10^7 M-1; discussion gives about 50-80 nM. A general note: In an ELISA, binding on a coated surface is turned into a signal by an enzyme label.
For data set [2] the test system is unchanged. Kind of data set: ELONA. Conditions: ELISA.

Usually Kd stands for a measure of binding affinity in units of concentration. In the case of “ATATATATCCTAGAACGACAGACAAACAGTGAGTCCGCATTGTTACAT (double strand) [Icomp (Icomp:Icomp')]”, the Kd in data set [1] was determined as 0.08 µM. For orientation: IC50 means the concentration that gives 50% inhibition. As to “AAAAGACTCACTGTTTGTCTGTCGTTCTAGGATATATAT / ATATATATCCTAGAACGACAGACAAACAGTGAGTC [35 bp dsDNA epitope (ssDNA:ssDNA')]”, the IC50 in data set [2] (varying immobilized dsDNA at fixed scFv (3 uM)) amounted to 0.031 µM; in data set [2] (varying scFv with 25 pmol immobilized dsDNA, single site isotherm, 5xSSCT immobilization, RT), 0.238 µM.
